Experimental findings from patent US20060003399A1, “High throughput actin polymerization assay” (Cytokinetics, Inc., priority 2004, published 2006) are described below.

Data set [1] is described as follows: Solubility of purified full-length WASP / N-WASP. The data set is classed as physicochemical. The note with it: purified TAP-tag protein from 293 cells.
In a further data set the target is Arp2/3. Nature of the data set: Activities of WASP/N-WASP proteins (Table 4). The data set is classed as biochemical. The source says: The term “variant” or “analogue” generally refers to proteins that are functional equivalents to a native sequence that have similar amino acid sequences and retain, to some extent, one of the activities of the corresponding native protein. Variants/analogues include fragments that retain one or more activities of the corresponding native protein. Examples of WASP and N-WASP activity include, but are not limited to, capacity to: 1) bind Arp2/3 and actin; 2) activate the actin nucleation activity of Arp2/3 (descriptions of assays to detect nucleation activity are provided below); 3) bind an upstream regulator; 4) be regulated by one or more upstream regulators, thereby rendering the WASP or N-WASP protein able to activate the nucleation activity of Arp2/3; and 5) bind downstream regulators initiating signal transduction cascades. Some of the WASP and N-WASP proteins that are provided are able to recapitulate the full activity of WASP or N-WASP, which means that these proteins have all five of the activities just listed. […]
A third class of NPF proteins that can be utilized in some assays include WASP, N-WASP and SCAR proteins that include the WH1 domain but in which the PolyPro region is (e.g., deleted). A fourth class of NPF proteins that can be utilized in some assays are WASP, N-WASP and SCAR deletion mutants in which the PolyPro region is maintained but an N-terminal region (e.g., WH1 domain) is at least partially removed. Some proteins in this class are ones that include the B, CRIB/GBD (WASP and N-WASP), PolyPro and VCA domains, but in which some or all of the WH1 has been removed. One specific example is 98N-WASP, which includes amino acids 98-501 of SEQ ID NO:4. Another specific example is the 105WASP protein, which includes amino acids 105-501 of SEQ ID NO:2 (see FIG. 4B).
As indicated in this table, specific examples of fusion proteins that can be utilized include those that include a segment that encodes full-length WASP or N-WASP, including: Myc-WASP-TAP (SEQ ID NO:14); and Myc-N-WASP-TAP (SEQ ID NO: 16). Examples of fusion proteins that include a WASP or N-WASP deletion mutant domain include: GST-105WASP (SEQ ID NO:18); Myc-105WASP-TAP (SEQ ID NO:20); GST-tev-98N-WASP (SEQ ID NO:22); and Myc-98N-WASP-TAP (SEQ ID NO:24). The TAP tag in these particular fusion proteins has the general structure CBP-tev-ProtA (SEQ ID NO:36). Fusion proteins such as those listed in Table 4 can in some instances be utilized directly, or after one or both of the C- and N-terminal tags are removed. For example, the fusion proteins listed in Table 4 as having a TAP tag can be used once the TAP tag has been cleaved off and/or after the C-terminal tag has been removed.

For a further data set, the target named is T1, Arp2/3 complex.
T1 construct: from tissue
Nature of the data set: Actin polymerization assay comparing FL-WASP/N-WASP and truncated forms of WASP. It is filed as biochemical, human. To be noted: without activators, FIG. 7. The protocol:
1. A cellular extract containing Arp2/3 complex was prepared from an Arp2/3 source such as human platelets (see, e.g., U.S. Provisional Application No. 60/578,969, filed Jun. 10, 2004; Welch and Mitchison (Meth. Enzymology 298:52-61,1988); and Higgs, H. N. et al. (Biochemistry 38:15212-15222, 1999), all of which are incorporated herein by reference in their entirety for all purposes).
Samples containing candidate agents (individually or as mixtures) are placed into wells on a multi-well plate. Mix 1 is added to each of the wells and mixed with the candidate agent. A sample of Mix 2 is then introduced into each well and the resulting mixture thoroughly mixed. Typically, Mix 1 and Mix 2 are mixed in 1:1 ratio (e.g., 50 μl each of Mix 1 and Mix 2).
Actin polymerization is measured as a function of time by exciting pyrene at 365 nm and by detecting an increase in fluorescence emission at 407 nm, or by exciting acrylodan at 405 nm and by detecting an increase in fluorescence emission at 460 nm. The change in fluorescence over time is utilized to determine a fluorescence parameter (e.g., maximal velocity, time to half maximal fluorescence intensity, or area under the curve of a plot of fluorescence versus time; see e.g., FIGS. 5A-5F).
Arp2/3 was purified as described in Example 1. […]

B1: FL-N-WASP: full length human N-WASP (SEQ ID NO:4), nucleation promoting factor (protein, listed as Homo sapiens)
chain: MSSVQQQPPPPRRVTNVGSLLLTPQENESLFTFLGKKCVTMSSAVVQLYAADRNCMWSKKCSGVACLVKDNPQRSYFLRIFDIKDGKLLWEQELYNNFVYNSPRGYFHTFAGDTCQVALNFANEEEAKKFRKAVTDLLGRRQRKSEKRRDPPNGPNLPMATVDIKNPEITTNRFYGPQVNNISHTKEKKKGKAKKKRLTKADIGTPSNFQHIGHVGWDPNTGFDLNNLDPELKNLFDMCGISEAQLKDRETSKVIYDFIEKTGGVEAVKNELRRQAPPPPPPSRGGPPPPPPPPHNSGPPPPPARGRGAPPPPPSRAPTAAPPPPPPSRPSVAVPPPPPNRMYPPPPPALPSSAPSGPPPPPPSVLGVGPVAPPPPPPPPPPPGPPPPPGLPSDGDHQVPTTAGNKAALLDQIREGAQLKKVEQNSRPVSCSGRDALLDQIRQGIQLKSVADGQESTPPTPAPTSGIVGALMEVMQKRSKAIHSSDEDEDEDDEEDFEDDDEWED
modifications: (1)..(505) FL-N-WASP
For B1, in data set [1], the “solubility (in words)” value is reported as “completely soluble”. For the same molecule, in the data set with Arp2/3, the “Activate Arp2/3?” value was “Yes” and the “Regulated By Which Upstream Regulators?” value is reported as “Cdc42, PIP2, Nck, Rac1”. The “stimulation of actin polymerization by the protein alone (in words)” value in the data set with Arp2/3 complex is “weakly stimulate actin polymerization”.
